Experimental data from patent US20140120095A1 (Boehringer Ingelheim, published 2014).

Experiments:
recombinant human DLL4 [1] = target: T1, recombinant human DLL4 (human, UniProt Q9NR61 25-522); assay: AlphaScreen biot-hDLL4/hNotch1-Fc, periplasmic extract
T1 construct: also called rhDLL4; hDLL4

recombinant human DLL4 [2] = target: T1, recombinant human DLL4; assay: hDLL4 ELISA screen, periplasmic extract
recombinant human DLL4 [3] = target: T1, recombinant human DLL4; assay: Biacore off-rate, periplasmic extract
[4] = target: T2, recombinant human VEGF165 (human, UniProt P15692-4 27-191, biotinylated in the competition assays); assay: AlphaScreen, hVEGF165/hVEGFR2-Fc competition; set-up: % inhibition: concentration or dose not given beside the values
T2 construct: Bought protein; also called hVEGF165; rhVEGF165
T2 sequence (P15692 other isoform, or with tags, fused parts or gaps): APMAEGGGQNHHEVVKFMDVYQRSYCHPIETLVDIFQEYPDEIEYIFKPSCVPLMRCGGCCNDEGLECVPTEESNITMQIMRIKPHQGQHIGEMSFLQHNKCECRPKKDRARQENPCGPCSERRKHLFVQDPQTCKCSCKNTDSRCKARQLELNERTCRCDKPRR
Method: (§1) Finally, streptavidin donor beads (20 μg/ml) are added and after 1 hour of incubation in the dark, fluorescence is measured on the Envision microplate reader.

[5] = target: T2, recombinant human VEGF165; assay: ELISA, hVEGF165/hVEGFR2-Fc competition; set-up: % inhibition: concentration or dose not given beside the values
[6] = target: T2, recombinant human VEGF165; assay: AlphaScreen, hVEGF165/hVEGFR2-Fc competition
Method: as §1

[7] = target: T2, recombinant human VEGF165; assay: binding ELISA, coated rhVEGF165
[8] = target: T2, recombinant human VEGF165; assay: SPR Biacore, immobilised hVEGF165, two state reaction model
Method: Samples are injected for 2 min and allowed to dissociate up to 20 min at a flow rate of 45 μl/min. In between sample injections, the chip surface is regenerated with 100 mM HCl. HBS-EP+(Hepes buffer pH7.4+EDTA) is used as running buffer. Binding curves are fitted using a Two State Reaction model by Biacore T100 Evaluation Software v2.0.1.
^{(a)}KD = kd1/kₐ₁ * (kd2/(kd2 + kₐ₂)) ^{(b)}Curves are fitted using a Two State Reaction model by Biacore T100 Evaluation Software v2.0.1

[9] = target: VEGF (used to stimulate HUVEC cells) (UniProt P15692-4 27-191, limits assumed); assay: cell-based or functional assay
Sequence of VEGF (used to stimulate HUVEC cells) (P15692 other isoform, or with tags, fused parts or gaps limits assumed): as the sequence (P15692 other isoform, or with tags, fused parts or gaps) above

[10] = target: T2, recombinant human VEGF165; assay: AlphaScreen, hVEGF165/hVEGFR1-Fc competition; set-up: % inhibition: concentration or dose not given beside the values
Method: as §1

[11] = target: T3, recombinant human DLL4 (C-terminally His-tagged extracellular domain, R&D Systems) (human, UniProt Q9NR61 25-522, biotinylated in the competition ELISA); assay: SPR (Biacore), recombinant human DLL4
T3 construct: also called rhDLL4; hDLL4
Method: Kinetic analysis to determine the affinity of the DII4-VHH interaction is performed by Surface Plasmon Resonance (SPR) on a Biacore T100 instrument. […] Purified VHHs or Fab fragment are injected for 2 minutes at different concentrations (between 10 and 300 nM) and allowed to dissociate for 20 min at a flow rate of 45 μl/min. Between sample injections, the surfaces are regenerated with 10 mM glycine pH1.5 and 100 mM HCl. HBS-N (Hepes buffer pH7.4) is used as running buffer. If possible, data are evaluated by fitting a 1:1 interaction model (Langmuir binding) onto the binding curves. The affinity constant KD is calculated from resulting association and dissociation rate constants (kₐ) and […].

[12] = target: T4, mouse DLL4 expressed on CHO cells (mouse, UniProt Q9JI71 27-686); assay: competition FMAT, labelled hNotch1-Fc on CHO-mDLL4 cells
T4 construct: whole, on cells; also called mDLL4; CHO-mDLL4
T4 sequence (Q9JI71 27-686): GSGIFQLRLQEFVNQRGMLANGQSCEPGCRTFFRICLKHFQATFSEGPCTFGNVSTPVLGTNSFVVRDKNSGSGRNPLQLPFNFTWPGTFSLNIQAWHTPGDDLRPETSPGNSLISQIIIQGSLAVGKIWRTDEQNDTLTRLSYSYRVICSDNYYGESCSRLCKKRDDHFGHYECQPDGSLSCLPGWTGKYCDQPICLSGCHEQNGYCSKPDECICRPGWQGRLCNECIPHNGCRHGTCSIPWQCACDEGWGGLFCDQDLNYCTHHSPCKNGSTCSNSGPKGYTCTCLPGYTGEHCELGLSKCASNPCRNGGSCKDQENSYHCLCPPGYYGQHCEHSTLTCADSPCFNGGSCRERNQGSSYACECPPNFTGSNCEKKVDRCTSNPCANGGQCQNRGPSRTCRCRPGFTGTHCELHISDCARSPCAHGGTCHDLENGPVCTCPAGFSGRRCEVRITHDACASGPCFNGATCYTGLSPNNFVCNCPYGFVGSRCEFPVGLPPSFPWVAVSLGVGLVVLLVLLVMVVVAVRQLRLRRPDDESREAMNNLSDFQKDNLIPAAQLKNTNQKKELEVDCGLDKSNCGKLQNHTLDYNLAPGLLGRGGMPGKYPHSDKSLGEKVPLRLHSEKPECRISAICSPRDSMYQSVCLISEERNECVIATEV

[13] = target: T5, human DLL4 expressed on cells (CHO-hDLL4; HEK293-hDLL4) (human, UniProt Q9NR61 27-685); assay: competition FMAT, labelled hNotch1-Fc on CHO-hDLL4 cells
T5 construct: full length human DLL4 overexpressed on CHO cells (FMAT, FACS) or HEK293 cells (reporter assay)

[14] = target: T3, recombinant human DLL4 (C-terminally …); assay: cell-based or functional assay
[15] = target: T5, human DLL4 expressed on cells …; assay: cell-based or functional assay

| Binder | % inh (recombinant human DLL4 [1]) [%] | % inh (recombinant human DLL4 [2]) [%] | koff (recombinant human DLL4 [3]) [s⁻¹] | Kd [11] [nM] | koff [11] [s⁻¹] | kon [11] [M⁻¹ s⁻¹] | IC50 [12] [nM] | IC50 [13] [nM] | IC50, DLL4-mediated HUVEC proliferation assay [14] [nM] | Inhibition (%), DLL4-mediated HUVEC proliferation assay [14] [%] | IC50, DLL4-mediated reporter assay (hDLL4) [15] [nM] | also measured |
| --- | --- | --- | --- | --- | --- | --- | --- | --- | --- | --- | --- | --- |
| DLLBII19F12 (VHH) VHH: EVQLVESGGGLVQAGGSLRLSCTASGSTFTSYAMGWYRQAPGKQRELVAAISSDDSTYYADCVKGRFTISRDNAKNTVYLQMNSLKPEDTAVYYCNAPHSDYDEEAPSDFGSWGQGTQVTVSS | 98 | 98 | 0.00049 | – | – | – | – | – | – | – | – | – |
| DLLBII33C05 (VHH) VHH: EVQLVESGGGLVQAGGSLRLSCAASGFTLDNYVIGWFRQAPGKEREEVSCISSSGGSTDYLDSVKGRFTISRDNAKNTVYLQMNSLKPEDTAVYYCAADSLPCYYDKMVYDYWGQGTQVTVSS | 75 | 86 | 0.00092 | – | – | – | – | – | – | – | – | – |
| DLLBII28B06 (VHH) VHH: EVQLVESGGGLVQAGGSLRLSCAASGSTFSTYAMGWYRQDPGNQRELVAAISSDGSTHYADSVKGRFTISRDNAKNTVYLQMNSLKPEDTAVYYCYAPVKVAGLEYDYWGQGTQVTVSS | 54 | 23 | 0.0075 | – | – | – | – | – | – | – | – | – |
| VEGFBII023 (VHH, not shown: small tags and cut ends, Bivalent anti-VEGF VHH; also called VEGFBII23B04-40GS-10E07) EVQLVESGGGLVQTGDSLRLSCEVSGRTFSSYSMGWFRQAQGKEREFVVAISKGGYKYDSVSLEGRFTISKDNAKNTVYLQINSLKPEDTAVYYCASSRAYGSSRLRLADTYEYWGQGTQVTVSSGGGGSGGGGSGGGGSGGGGSGGGGSGGGGSGGGGSGGGGSEVQLVESGGGLVQAGGSLRLSCAASGRTFSNYAMGWFRQAPGKERVLVADISSSGINTYVADAVKGRFTISRDNAKNTVYLQMNSLKPEDTAVYYCAASAWWYSQMARDNYRYWGQGTQVTVSS | – | – | – | – | – | – | – | – | – | – | – | % inhibition [4]: 100%; IC50 [4]: 0.046 nM; % inhibition [5]: 100%; IC50 [5]: 0.213 nM; IC50 [6]: 0.038 nM; EC50 [7]: 0.221 nM; Kd [8]: 0.69 nM; ka1 [8]: 300000 M⁻¹ s⁻¹; ka2 [8]: 0.024 s⁻¹; kd1 [8]: 0.018 s⁻¹; kd2 [8]: 0.00027 s⁻¹; % inhibition, VEGF HUVEC Erk phosphorylation assay [9]: 100%; IC50, VEGF HUVEC Erk phosphorylation assay [9]: 0.25 nM; % inhibition [10]: 87%; IC50 [10]: 0.048 nM |
| DLLBII018 (VHH, not shown: small tags and cut ends) VHH: EVQLVESGGGLVQPGGSLRLSCAASGRTFSSYAMAWYRQAPGKEREYVAAIRWSGGTAYYADSVKGRFTISRDNAKNTVYLQMNSLRPEDTAVYYCANRAPDTRLAPYEYDHWGQGTLVTVSS | – | – | – | 0.2 | 9.4e-05 | 450000 | 15.4 | 11 | 5.3 | 100 | 136 | – |
| DLLBII036 (VHH, not shown: small tags and cut ends) VHH: EVQLVESGGGLVQPGGSLRLSCAASGFTFGSYDMSWVRRAPGKGPEWVSSISSGGGSTYYADYVKGRFTISRDNAKNTLYLQMNSLRPEDTAVYYCAADRYIWARQGEYWGAYEYDYWGQGTLVTVSS | – | – | – | 0.8 | 0.00055 | 660000 | 44.7 | 9.7 | 7.6 | 100 | 78 | – |
| DLLBII039 (VHH, not shown: small tags and cut ends) VHH: EVQLVESGGGLVQPGGSLRLSCAASGFTIGSYDMSWVRRAPGKGPEWVSSISSGGGSTYYADYVKGRFTISRDNAKNTLYLQMNSLRPEDTAVYYCAADRYIWARQGEYWGAYEYDYWGQGTLVTVSS | – | – | – | 1.8 | 0.00081 | 450000 | 43.8 | 6.2 | 14.4 | 100 | 16 | – |
